Results taken from patent publication US20250197490A1 (HBM ALPHA THERAPEUTICS, published 2025).
Residue numbers refer to the chain shown, from its start. Like-named read-outs stand apart in the source and are kept apart here.

Assays:
biotinylated CRH [1] = biological target: T1, biotinylated CRH (human and mouse, UniProt P01143 145-185 (rat entry), not fully specified; biotin; which end is not stated for the result (NT-biotin and CT-biotin forms were used)); assay: Octet in-tandem competition on captured CRH; row = 1st mAb; competitor (2nd mAb) PR006669
T1 construct: also called biotin-CRH; CRH (NT biotin)
T1 peptide: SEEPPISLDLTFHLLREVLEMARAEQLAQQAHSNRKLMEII
Description: (§1) SA sensors (Fortebio, Cat #18-5019) were hydrated in running buffer for 10 mins.

biotinylated CRH [2] = biological target: T1, biotinylated CRH; assay: Octet in-tandem competition on captured CRH; row = 1st mAb; competitor (2nd mAb) PR005660
Description: as §1

[3] = biological target: T2, corticotropin-releasing hormone (CRH) peptide (human and mouse, UniProt P01143 145-185 (rat entry), not fully specified); assay: cell-based or functional assay
T2 peptide: T1 peptide

biotinylated CRH [4] = biological target: T1, biotinylated CRH; assay: Octet in-tandem competition on captured CRH; row = 1st mAb; competitor (2nd mAb) PR303394
Description: as §1

[5] = biological target: T3, human UCN2 peptide, biotinylated (human, UniProt Q96RP3 72-109, limits assumed, biotin at N- or C-terminus); assay: ELISA, hUCN2 (NT biotin) and (CT biotin)
T3 construct: also called hUCN2 (NT Biotin); hUCN2 (CT Biotin)
T3 peptide (looked up): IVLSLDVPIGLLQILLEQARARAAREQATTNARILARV
Description: (§2) Streptavidin (Thermo, Cat: 21125) was diluted in PBS with a concentration of 2 μg/mL. 100 μL of diluted streptavidin was added per well to ELISA microplates, and the plates were incubated overnight at 4° C. Plates were blocked with ELISA blocking solution (containing 2% w/v BSA, 0.05% (v/v) Tween-20, pH 7.4 PBS buffer) at 37° C. for 1 hour, and then incubated with either 1 μg/mL hUCN1 (NT Biotin), hUCN1 (CT Biotin), hUCN2 (NT Biotin), hUCN2 (CT Biotin), hUCN3 (NT Biotin), or hUCN3 (CT Biotin) for 1 hour at 37° C. […] Plates were subsequently washed and incubated with HRP-conjugated goat anti-human IgG (H+L) antibody (Jackson, Cat: 109-035-088) at 37° C. for 1 hour. 100 μl of TMB Substrate (Biopanda, Cat: TMB-S-003) was added, and the plates were incubated at room temperature for 15 minutes. 100 μL of ELISA stopping solution (Solarbio, Cat #: C1058) was then added to terminate the reaction, and the OD450 nm was determined by an ELISA plate reader (Molecular Devices, Spectra max 384 plus).

[6] = biological target: T4, CRH (Central Region, NT Biotin) (N-terminal Biotin-K; C-terminal NH2); assay: ELISA, CRH central region peptide (NT biotin)
T4 construct: also called Central CRH
T4 peptide: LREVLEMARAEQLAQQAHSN
Description: (§3) Streptavidin (Thermo, Cat: 21125) was diluted in PBS to a concentration of 2 μg/ml. 100 μl of diluted streptavidin was added per well to ELISA microplates, and the plates were incubated overnight at 4° C. […] Subsequently, plates were washed and incubated with HRP-conjugated goat anti-human IgG (H+L) antibody (Jackson, Cat: 109-035-088) at 37° C. for 1 hour. 100 μL of 3,3′,5,5′-tetramethylbenzidine (TMB) substrate (Biopanda, Cat: TMB-S-003) was added, and the plates were incubated at room temperature for 15 minutes. 100 μL of ELISA stopping solution (Solarbio, Cat #: C1058) was added to terminate the reaction, and the optical density at 450 nm (OD450 nm) was determined by an ELISA plate reader (Molecular Devices, Spectra max 384 plus).

[7] = biological target: T5, CRH (C-Terminal Region, NT Biotin) (N-terminal Biotin-K; C-terminal NH2); assay: ELISA, CRH C-terminal region peptide (NT biotin)
T5 construct: central region plus C-terminal region of CRH; also called C-Terminal CRH; C-Ter-CRH
T5 peptide: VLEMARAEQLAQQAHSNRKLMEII
Description: as §3

biotinylated CRH [8] = biological target: T1, biotinylated CRH; assay: Octet in-tandem competition on captured CRH; row = 1st mAb; competitor (2nd mAb) PR301777
Description: as §1

biotinylated CRH [9] = biological target: T1, biotinylated CRH; assay: Octet in-tandem competition on captured CRH; row = 1st mAb; competitor (2nd mAb) PR302334
Description: as §1

[10] = biological target: T6, human UCN1 peptide, biotinylated (human, UniProt P55089 83-122, biotin at N- or C-terminus); assay: ELISA, hUCN1 (NT biotin)
T6 construct: also called hUCN1 (NT Biotin); hUCN1 (CT Biotin)
T6 peptide (looked up): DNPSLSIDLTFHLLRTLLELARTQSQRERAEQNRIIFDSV
Description: as §3

biotinylated CRH [11] = biological target: T1, biotinylated CRH; assay: Octet in-tandem competition on captured CRH; row = 1st mAb; competitor (2nd mAb) PR302341-34
Description: as §1

biotinylated CRH [12] = biological target: T1, biotinylated CRH; assay: Octet in-tandem competition on captured CRH; row = 1st mAb; competitor (2nd mAb) PR302309-8
Description: as §1

[13] = biological target: T7, N-Terminal CRH peptide (N-terminal region plus central region, CT biotin) (human and mouse, C-terminal K-Biotin); assay: ELISA, N-Ter-CRH (CT-biotin) on streptavidin
T7 construct: also called N-Ter-CRH
T7 peptide: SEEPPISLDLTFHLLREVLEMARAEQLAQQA
Description: as §3

[14] = biological target: T8, CRH (Central Region, CT Biotin) (C-terminal K-Biotin); assay: ELISA, CRH central region peptide (CT biotin)
T8 construct: also called Central CRH
T8 peptide: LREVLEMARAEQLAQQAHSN
Description: as §3

biotinylated CRH [15] = biological target: T1, biotinylated CRH; assay: ELISA, CRH (CT biotin)
Description: as §3

[16] = biological target: T9, human UCN3 peptide, biotinylated (human, UniProt Q969E3 120-157, biotin at N- or C-terminus); assay: ELISA, hUCN3 (NT biotin) and (CT biotin)
T9 construct: also called hUCN3 (NT Biotin); hUCN3 (CT Biotin)
T9 peptide (looked up): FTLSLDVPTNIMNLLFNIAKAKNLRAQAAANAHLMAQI
Description: as §2

biotinylated CRH [17] = biological target: T1, biotinylated CRH; assay: ELISA, CRH (NT biotin)
Description: as §3

[18] = biological target: T2, corticotropin-releasing hormone (CRH) …; assay: cell-based or functional assay
biotinylated CRH [19] = biological target: T1, biotinylated CRH; assay: ELISA, CRH (NT biotin)
[20] = biological target: T2, corticotropin-releasing hormone (CRH) …; assay: cell-based or functional assay
biotinylated CRH [21] = biological target: T1, biotinylated CRH; assay: ELISA, CRH (NT biotin)
[22] = biological target: T2, corticotropin-releasing hormone (CRH) …; assay: cell-based or functional assay
biotinylated CRH [23] = biological target: T1, biotinylated CRH; assay: ELISA, CRH (CT biotin)
biotinylated CRH [24] = biological target: T1, biotinylated CRH; assay: ELISA, CRH (NT biotin)
biotinylated CRH [25] = biological target: T1, biotinylated CRH; assay: ELISA, CRH (NT biotin)
[26] = biological target: T2, corticotropin-releasing hormone (CRH) …; assay: cell-based or functional assay
biotinylated CRH [27] = biological target: T1, biotinylated CRH; assay: ELISA, CRH (CT biotin)
biotinylated CRH [28] = biological target: T1, biotinylated CRH; assay: ELISA, CRH (CT biotin)
Description: as §3
These potential PTMs were mutated individually either in HCDR2 alone, in LCDR1 alone, or in various combinations of mutations, as detailed in Table 3. […] Most ΔPTM variants retained functional activities.

[29] = biological target: T2, corticotropin-releasing hormone (CRH) …; assay: cell-based or functional assay
[30] = biological target: T2, corticotropin-releasing hormone (CRH) …; assay: cell-based or functional assay

B1: PR302309-8 (antibody, human IgG1, kappa, V domains shown)
VH: QIQLVQSGSELKKPGASVKVSCKASGYTFTNYGMNWVRQAPGQGLEWMGWINTYTGEPIYTDDFKGRFVFSLDTSVSTAYLQISSLKAEDTAVYYCSRSTMITTGGVFAYWGQGTLVTVSS
VL: DVVMTQSPLSLPVTLGQPASISCRSSQTIVHSDGNTYLEWYQQRPGQSPRLLIYKVSNRFSGVPDRFSGSGSGTDFTLKISRVEAEDLGVYYCFQGSHVPWTFGGGTKVEIKR
- % Inhibition (biotinylated CRH [1]): 76%
- % Inhibition (biotinylated CRH [2]): 76%
- hCRHR1-Luc 0.5 nM CRH IC50 [3]: 1.7 nM
- % Inhibition (biotinylated CRH [4]): 77%
- binding result [5]: no binding (tested: 100 nM)
- binding result [6]: no binding (tested: 100 nM)
- binding result [7]: no binding (tested: 100 nM)
- % Inhibition (biotinylated CRH [8]): 80%
- % Inhibition (biotinylated CRH [9]): 65%
- EC50 (read off the curve) [10]: ~0.1 nM
- % Inhibition (biotinylated CRH [11]): 74%
- % Inhibition (biotinylated CRH [12]): 87%
- EC50 [13]: 0.025 nM
- binding result [14]: no binding (tested: 100 nM)
- EC50 (read off the curve) (biotinylated CRH [15]): ~0.03 nM
- binding result [16]: no binding (tested: 100 nM)
- EC50 (read off the curve) (biotinylated CRH [17]): ~0.03 nM

B2: PR302341-67 (antibody, human IgG1, kappa, V domains shown)
VH: QVQLVQSGAEVKKPGASVKVSCKASGYTFTDYFMKWVRQAPGQGLEWMGVINPNNGDIFYNQKFKGRVTMTVDKSTSTAYMELSSLRSEDTAVYYCARGTDRALFAYWGQGTLVTVSS
VL: B1 VL with S7T, L11S, S26G, T28S, G34A, S48P, S72A, V99I
- IC50 (read off the curve), CRH-induced hCRHR1 luciferase reporter [18]: ~0.2 nM

B3: PR004290 (antibody, human IgG1, kappa, V domains shown)
VH: EVQLVESGGVLVQPGGSLRLSCAASGFTFSSYWMTWVRQAPGKGLEWVANIKQDGSEKYYVDSVKGRFTISRDNAKNSLFLQMNSLRAEDTAVYYCARTLIFDYWGQGTLVTVSS
VL: DIVMTQSPLSLPVTPGEPASISCRSSQSLLHSTGYNSLEWYLQKPGQSPQLLIYLGSNRASGVPDRFSGSGSGTDFTLKISRVEAEDVGIYYCMQTLQTPITFGQGTRLEIKR
notes: human IgG1 wildtype Fc; also called Hybridoma Clone 28b3
- EC50 (read off the curve) (biotinylated CRH [19]): ~0.03 nM
- IC50 (read off the curve), CRH-induced hCRHR1 luciferase reporter [20]: ~3 nM
- EC50 (read off the curve) (biotinylated CRH [21]): ~0.05 nM
- IC50 (read off the curve), CRH-induced mCRHR1 luciferase reporter [22]: ~5 nM
- EC50 (read off the curve) (biotinylated CRH [23]): ~0.01 nM
- EC50 (read off the curve) (biotinylated CRH [24]): ~0.01 nM
- EC50 (read off the curve) (biotinylated CRH [25]): ~0.01 nM
- IC50 (read off the curve), CRH-induced hCRHR1 luciferase reporter [26]: ~3 nM
- EC50 (read off the curve) (biotinylated CRH [27]): ~0.03 nM
- EC50 (read off the curve) (biotinylated CRH [28]): ~0.05 nM
- IC50 in the hCRHR1 reporter assay [29]: ~5 nM
- IC50 (read off the curve), CRH-induced mCRHR1 luciferase reporter [30]: ~8 nM
